# B1: N656L peptide (C52 peptide with leucine for asparagine at position 656) (peptide)
# chain: NHTTWLEWDREINNYTSLIHSLIEESQNQQEKLEQELLELDKWASLWNWFNI
# notes: No unique oligomeric state; The apparent molecular weight depends on the concentration
# What was measured:
# [1] = target: HIV-1 envelope glycoprotein (gp120/gp41 complex) of isolate JRFL (HIV-1); test: cell-based or functional assay
# [2] = target: HIV-1 envelope glycoprotein (gp120/gp41 complex) of isolate NL4-3 (HIV-1); test: cell-based or functional assay
# [3] = target: HIV-1 envelope glycoprotein (gp120/gp41 complex) of isolate 2076c1.3 (HIV-1); test: cell-based or functional assay
# [4] = target: HIV-1 envelope glycoprotein (gp120/gp41 complex) of isolate 92US657 (HIV-1); test: cell-based or functional assay
# [5] = target: HIV-1 envelope glycoprotein (gp120/gp41 complex) of isolate DH123 (HIV-1); test: cell-based or functional assay
# [6] = target: HIV-1 envelope glycoprotein (gp120/gp41 complex) of isolate SF162 (HIV-1) (UniProt P19549); test: cell-based or functional assay
# [7] = target: HIV-1 envelope glycoprotein (gp120/gp41 complex) of isolate HC4 (HIV-1); test: cell-based or functional assay
# [8] = target: Q652L peptide (C52 peptide with leucine for glutamine at position 652) (HIV-1 (HXB2 strain)); test: sedimentation equilibrium, 4 C; self-association
# [9] = target: the molecule itself; test: sedimentation equilibrium; self-association
Molecule,"EC50 IgG (ug/ml), neutralization of HIV-1 (p24 production in PHA-activated PBMC) [1] [µg/mL]","EC50 IgG (ug/ml), neutralization of HIV-1 (p24 production in PHA-activated PBMC) [2] [µg/mL]","EC50 IgG (ug/ml), neutralization of HIV-1 (p24 production in PHA-activated PBMC) [3] [µg/mL]","EC50 IgG (ug/ml), neutralization of HIV-1 (p24 production in PHA-activated PBMC) [4] [µg/mL]","EC50 IgG (ug/ml), neutralization of HIV-1 (p24 production in PHA-activated PBMC) [5] [µg/mL]","EC50 IgG (ug/ml), neutralization of HIV-1 (p24 production in PHA-activated PBMC) [6] [µg/mL]","EC50 IgG (ug/ml), neutralization of HIV-1 (p24 production in PHA-activated PBMC) [7] [µg/mL]","molecular weight from sedimentation equilibrium (expected for a trimer 19,419) [8]",binding result [9]
CD4-IgG2 (Fc fusion),0.51,0.21,> 10,> 10,5.18,< 0.062,> 10,–,–
Q652L peptide (C52 peptide with leucine for glutamine at position 652),–,–,–,–,–,–,–,17700,–
human antibody 2F5 isolated from an HIV-1-infected donor,4.37,15.2,38.1,57.8,–,–,34.2,–,–
B1,–,–,–,–,–,–,–,–,binds

# Source: patent US7179468 (CORNELL RESEARCH FOUNDATION, dated 2007)
